Results on three molecules are retold here after patent US20220144921A1 (US Dept. of Health and Human Services, published 2022).

For assay [1], the target named is T1, native NS1 on the surface of DENV2-infected Vero cells (Dengue virus serotype 2, UniProt P29990 776-1127).
T1 construct: domain: NS1; also called DENV2 (Cell-Based ELISA)
T1 sequence: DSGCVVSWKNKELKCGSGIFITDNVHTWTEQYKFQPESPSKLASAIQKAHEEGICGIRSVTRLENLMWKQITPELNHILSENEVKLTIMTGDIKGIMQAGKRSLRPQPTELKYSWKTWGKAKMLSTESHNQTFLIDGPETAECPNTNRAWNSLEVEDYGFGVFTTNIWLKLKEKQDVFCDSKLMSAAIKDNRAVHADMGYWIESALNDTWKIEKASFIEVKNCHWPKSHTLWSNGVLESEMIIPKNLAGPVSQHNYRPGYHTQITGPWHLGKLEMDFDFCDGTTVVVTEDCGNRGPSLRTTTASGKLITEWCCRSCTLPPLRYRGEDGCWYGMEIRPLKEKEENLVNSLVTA
In words: cell-based ELISA on infected Vero cells.

Assay [2] deals with T2, native NS1 on the surface of DENV1-infected Vero cells (Dengue virus serotype 1, UniProt P17763 776-1127).
T2 construct: domain: NS1; also called DENV1 (Cell-Based ELISA)
T2 sequence: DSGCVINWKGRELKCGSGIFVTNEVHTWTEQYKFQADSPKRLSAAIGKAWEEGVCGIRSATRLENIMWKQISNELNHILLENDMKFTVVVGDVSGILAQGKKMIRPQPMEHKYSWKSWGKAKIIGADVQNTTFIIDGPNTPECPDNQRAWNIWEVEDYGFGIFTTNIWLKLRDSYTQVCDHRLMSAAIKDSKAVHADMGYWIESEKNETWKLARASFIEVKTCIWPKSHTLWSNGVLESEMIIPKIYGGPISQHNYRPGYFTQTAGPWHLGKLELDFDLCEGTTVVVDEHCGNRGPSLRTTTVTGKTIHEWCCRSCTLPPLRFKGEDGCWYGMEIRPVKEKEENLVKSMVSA
In words: cell-based ELISA on infected Vero cells.

For assay [3], the target named is T3, native NS1 on the surface of DENV3-infected Vero cells (Dengue virus serotype 3, UniProt Q6YMS4 774-1125).
T3 construct: domain: NS1; also called DENV3 (Cell-Based ELISA)
T3 sequence: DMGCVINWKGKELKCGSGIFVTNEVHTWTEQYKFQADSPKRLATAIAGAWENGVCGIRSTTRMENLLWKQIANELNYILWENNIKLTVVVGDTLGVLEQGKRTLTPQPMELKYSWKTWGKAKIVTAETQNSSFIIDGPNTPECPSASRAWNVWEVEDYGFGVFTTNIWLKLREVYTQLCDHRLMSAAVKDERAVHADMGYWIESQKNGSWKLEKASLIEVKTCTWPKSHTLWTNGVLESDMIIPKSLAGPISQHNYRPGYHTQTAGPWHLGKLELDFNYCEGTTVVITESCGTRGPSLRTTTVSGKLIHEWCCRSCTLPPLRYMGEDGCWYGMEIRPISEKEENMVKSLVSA
In words: cell-based ELISA on infected Vero cells.

The target in assay [4] is T4, recombinant non-structural protein 1 of DENV2 (Dengue virus serotype 2, UniProt P29990 776-1127).
T4 construct: domain: NS1; also called rNS1 DENV2
T4 sequence: T1 sequence
In words: iELISA, FIG. 4 legend.

Assay [5] deals with T5, recombinant non-structural protein 1 of Yellow Fever Virus (Yellow Fever Virus, UniProt P03314 779-1130).
T5 construct: domain: NS1; also called rNS1 YFV
Put plainly: iELISA, FIG. 4 legend.

Assay [6] deals with T6, recombinant non-structural protein 1 of DENV3 (Dengue virus serotype 3, UniProt Q6YMS4 774-1125).
T6 construct: domain: NS1; also called rNS1 DENV3
T6 sequence: T3 sequence
Put plainly: iELISA, FIG. 4 legend.

The target of assay [7] is T7, recombinant non-structural protein 1 of DENV1 (Dengue virus serotype 1, UniProt P17763 776-1127).
T7 construct: domain: NS1; also called rNS DENV1; rNS1 DENV1
T7 sequence: T2 sequence
In words: iELISA, FIG. 4 legend.

In assay [8] the target is T8, recombinant non-structural protein 1 of West Nile Virus (West Nile Virus, UniProt P06935 788-1139).
T8 construct: domain: NS1; also called rNS1 WNV
T8 sequence: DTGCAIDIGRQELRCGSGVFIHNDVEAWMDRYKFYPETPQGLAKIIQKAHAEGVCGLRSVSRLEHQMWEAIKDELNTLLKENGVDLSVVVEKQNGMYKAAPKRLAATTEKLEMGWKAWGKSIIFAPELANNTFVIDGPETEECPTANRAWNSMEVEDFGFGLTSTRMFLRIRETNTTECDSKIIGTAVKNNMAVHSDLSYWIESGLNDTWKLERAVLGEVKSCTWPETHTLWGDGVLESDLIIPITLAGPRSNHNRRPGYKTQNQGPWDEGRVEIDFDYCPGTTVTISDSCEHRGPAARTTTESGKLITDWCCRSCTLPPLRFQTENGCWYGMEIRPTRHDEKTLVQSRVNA
Put plainly: iELISA, FIG. 4 legend.

Assay [9] addresses T9, recombinant SUMO protein (small-ubiquitin-like modifier).
T9 construct: also called SUMO* tag
Put plainly: iELISA, FIG. 4 legend.

Assay [10] concerns the target T10, native NS1 in culture supernatant of DENV2-infected Vero cells (Dengue virus serotype 2, UniProt P29990 776-1127).
T10 construct: domain: NS1
T10 sequence: T1 sequence
In words: iELISA on Vero cell culture supernatant.

The target in assay [11] is T11, native NS1 in culture supernatant of DENV1-infected Vero cells (Dengue virus serotype 1, UniProt P17763 776-1127).
T11 construct: domain: NS1
T11 sequence: T2 sequence
Put plainly: iELISA on Vero cell culture supernatant.

The target of assay [12] is T12, native NS1 in culture supernatant of DENV3-infected Vero cells (Dengue virus serotype 3, UniProt Q6YMS4 774-1125).
T12 construct: domain: NS1
T12 sequence: T3 sequence
Put plainly: iELISA on Vero cell culture supernatant.

In assay [13] the target is T4, recombinant non-structural protein 1 of …. Put plainly: iELISA on recombinant protein.
In assay [14] the target is T5, recombinant non-structural protein 1 of …. In words: iELISA on recombinant protein.
In assay [15] the target is T6, recombinant non-structural protein 1 of …. In words: iELISA on recombinant protein.
The target in assay [16] is T7, recombinant non-structural protein 1 of …. In words: iELISA on recombinant protein.
The target in assay [17] is T8, recombinant non-structural protein 1 of …. Put plainly: iELISA on recombinant protein.

B1: MAb 6D4B10 (antibody, V domains shown)
VH: EVQLQQSGPELVKPGASVKMSCKASGYTFTSYVMHWVKQKPGQGLEWIGYLNPYNDDTKYNEKFKGKATLTSDKSSSTAYMELSSLTSEDSAVYYCAYGPPYALDYWGQGTSVTVSS
VL: QIVLTQSPAIMTASLGERVTMTCTASSSVSSSYLHWYQQKPGSSPKLWIYSTSNLASGVPARFSGSGSGTSYSLTISSMEAEDAATYYCHQYHRSPYTFGGGTKLEIK
For B1, the binding result in [1], in assay [2], in [3], in assay [10], in assay [11] and in assay [12] was “no binding” each time. In addition, the binding result in [13], in assay [14], in assay [15], in assay [16] and in assay [17] was “no binding” each time. In addition, the “OD value (450 nm)” value in assay [4], in [5], in assay [6], in [7], in [8] and in assay [9] was under 0 OD each time.

B2: MAb 8A6F2 (antibody, V domains shown)
VH: DVQLQESGPDLVKPSQSLSLTCTVTGYSITSGYNWHWIRQFPGNKLEWMGYIHYSGGTNYNPSLKSRISITRDTSKNQFFLQLNSVTTEDTATYYCARRTGTVPFAYWGQGTLVTVSA
VL: EIVLTQSPALMAASPGEKVTITCSVSSSISSSNLHWYQQKSETSPKPWIYGTSNLASGVPVRFSGSGSGTSYSLTISSMEAEDAATYYCQQWSSYPLTFGGGTKLEIK
B2: the binding result in [1], in assay [2], in [3], in assay [10], in assay [11] and in assay [12] was “no binding” each time. The binding result in [13], in [14], in assay [15], in assay [16] and in assay [17] was “no binding” throughout. The “OD value (450 nm)” value in [4], in assay [5], in assay [6], in [7], in assay [8] and in [9] was under 0 OD in each case.

B3: MAb 3H7A9 (antibody, V domains shown)
VH: EVQLQQSGAELVKPGASVKLSCTASGFNIKDTYMHWVKQRPEQGLEWIGRIDPANGNTQYGPKFQGKATITADTSSNTAYLQLSSLTSEDTAVYYCARGGIFYYYGSSYSYAMDYWGQGTSVTVSS
VL: DIQMTQTTSSLSASLGDRVTISCRASQDISNYLNWYQQKPDGTVTLLIYYTSRLHSGVPSRFSGSGSGTDYSLTISNLEQEDIATYFCQQGNTLPRTFGGGTKLEIK
Turning to B3, the binding result in [1], in assay [2], in assay [3], in assay [10], in [11] and in [12] was “no binding” in each case. The binding result in assay [13], in [14], in assay [15], in [16] and in assay [17] was “no binding” in each case. Further, the “OD value (450 nm)” value in assay [4], in assay [5], in assay [6], in [7], in assay [8] and in assay [9] was under 0 OD each time.
